The values below come from patent publication US20250270584A1, “Gene editing to provide insect resistance in crops” (The Regents of the University of California, priority 2022, published 2025).

The experiment has as its target 6His-CaM7 (Arabidopsis thaliana), P59220. Nature of the experiment: ITC at 25 C, peptide titrated into 6His-CaM7, 1 mM Ca2+.

On to DQQQNHDSSSMRSTRLQRFLSL (modifications not checked) [CBD peptide], for which the stoichiometry (peptide per CaM7) was determined as 1.
